Reference: patent US20260008862A1, “Bispecific Anti-BCMA x Anti-CD3 Antibodies and Uses Thereof” (Regeneron Pharmaceuticals, Inc., priority 2018, published 2026)

Target: T1, human BCMA-MMH (Homo sapiens, UniProt Q02223)
T1 construct: (human BCMA-MMH); myc-myc-hexahistidine (C); made in house
Assay: SPR (Biacore 4000) binding kinetics to human BCMA-MMH
Details: 25° C.
Procedure: The CM5 Biacore sensor surface was derivatized by amine coupling with a monoclonal mouse anti-human Fc antibody (GE, #BR-11008-39) to capture purified anti-BCMA mAbs and anti-BCMA×anti-CD3 bispecific mAbs. All Biacore binding studies were performed in a buffer composed of 0.01 M HEPES pH 7.4, 0.15M NaCl, 3 mM EDTA, 0.05% v/v Surfactant P20 (HBS-ET running buffer). […] Antigen samples were then injected over the anti-BCMA and anti-BCMA×anti-CD3 bispecific mAbs captured surfaces at a flow rate of 30 μL/minute. Antibody-reagent association was monitored for 5 minutes while dissociation in HBS-ET running buffer was monitored for 10 minutes. All of the binding kinetics experiments were performed at 25° C. Kinetic association (ka) and dissociation (kd) rate constants were determined by fitting the real-time sensorgrams to a 1:1 binding model using Scrubber 2.0c curve fitting software. Binding dissociation equilibrium constants (KD) and dissociative half-lives (t½) were calculated from the kinetic rate constants as: […]

T1 sequence (Q02223 with tags, fused parts or gaps): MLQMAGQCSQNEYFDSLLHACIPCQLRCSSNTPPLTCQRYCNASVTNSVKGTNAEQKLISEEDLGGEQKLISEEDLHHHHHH

Substance: REGN5459: anti-BCMA×anti-CD3 bispecific antibody: BCMA HCVR of mAb21581 (SEQ 66), CD3 HCVR of mAb7221G20 (SEQ 98), common LCVR SEQ 82
- ka: 730000 M⁻¹ s⁻¹
- kd: 0.00101 s⁻¹
